Laboratory results reported in US20250075002A1 (BEIGENE SWITZERLAND, published 2025).

B1: Clivatuzumab-AF (antibody, IgG1, V domains shown)
VH: QVQLQQSGAEVKKPGASVKVSCEASGYTFPSYVLHWVKQAPGQGLEWIGYINPYNDGTQYNEKFKGKATLTRDTSINTAYMELSRLRSDDTAVYYCARGFGGSYGFAYWGQGTLVTVSS
VL: DIQLTQSPSSLSASVGDRVTMTCSASSSVSSSYLYWYQQKPGKAPKLWIYSTSNLASGVPARFSGSGSGTDFTLTISSLQPEDSASYFCHQWNRYPYTFGGGTRLEIK
modifications: afucosylated Fc glycan (-AF)
B2: huBG219P-Bz0 (antibody, IgG1, V domains shown)
VH: EVQLLESGGGLVQPGGSLRLSCAASGFTFNDYIMSWVRQAPGKGLEWVATVSSGGDNTYYPDSVKGRFTISRDNSKNTLYLQMNSLRAEDTAVYYCTRYGGLGAMDYWGQGTLVTVSS
VL: DIQMTQSPSSLSASVGERVTITCRASGNIHNYLTWYQQKPGKSPKLLVYNAKTLADGVPSRFSGSGSGPDYTLTISSLQPEDFATYYCQHFWSVPYTFGQGTKLEIK
notes: Humanized
B3: HuVH-HMFG1-AF (antibody, IgG1, V domains shown)
VH: QVQLVQSGAEVKKPGASVKVSCKASGYTFSAYWIEWVRQAPGKGLEWVGEILPGSNNSRYNEKFKGRVTVTRDTSTNTAYMELSSLRSEDTAVYYCARSYDFAWFAYWGQGTLVTVSS
VL: DIQMTQSPSSLSASVGDRVTITCKSSQSLLYSSNQKIYLAWYQQKPGKAPKLLIYWASTRESGVPSRFSGSGSGTDFTFTISSLQPEDIATYYCQQYYRYPRTFGQGTKVEIK
modifications: afucosylated Fc glycan (-AF)
B4: MUC1 3D1-hFc-AF (antibody, IgG1, V domains shown)
VH: EVQLVQSGAEVKKPGESLKISCKGSGYAFSNFWMNWVRQMPGKGLEWMGQIYPGDGDTNYNGKFKGQVTISADKSISTAYLQWSSLKASDTAMYYCARSYYRSAWFAYWGQGTLVTVSL
VL: EIVLTQSPDFQSVTPKEKVTITCRASQSIGTSIHWYQQKPDQSPKLLIKYASESISGVPSRFSGSGSGTDFTLTINSLEAEDAATYYCQQSNNWPLTFGQGTKVEIK
modifications: afucosylated Fc glycan (-AF)
B5: Gatipotuzumab-AF (antibody, IgG1, V domains shown)
VH: EVQLVESGGGLVQPGGSMRLSCVASGFPFSNYWMNWVRQAPGKGLEWVGEIRLKSNNYTTHYAESVKGRFTISRDDSKNSLYLQMNSLKTEDTAVYYCTRHYYFDYWGQGTLVTVSS
VL: DIVMTQSPLSNPVTPGEPASISCRSSKSLLHSNGITYFFWYLQKPGQSPQLLIYQMSNLASGVPDRFSGSGSGTDFTLRISRVEAEDVGVYYCAQNLELPPTFGQGTKVEIK
modifications: afucosylated Fc glycan (-AF)

Assays:
[1] = target: T1, Human MUC1 (full length), on cells (human, UniProt P15941 24-1255); experiment: cell-based or functional assay
T1 sequence (P15941 24-1255 limits assumed): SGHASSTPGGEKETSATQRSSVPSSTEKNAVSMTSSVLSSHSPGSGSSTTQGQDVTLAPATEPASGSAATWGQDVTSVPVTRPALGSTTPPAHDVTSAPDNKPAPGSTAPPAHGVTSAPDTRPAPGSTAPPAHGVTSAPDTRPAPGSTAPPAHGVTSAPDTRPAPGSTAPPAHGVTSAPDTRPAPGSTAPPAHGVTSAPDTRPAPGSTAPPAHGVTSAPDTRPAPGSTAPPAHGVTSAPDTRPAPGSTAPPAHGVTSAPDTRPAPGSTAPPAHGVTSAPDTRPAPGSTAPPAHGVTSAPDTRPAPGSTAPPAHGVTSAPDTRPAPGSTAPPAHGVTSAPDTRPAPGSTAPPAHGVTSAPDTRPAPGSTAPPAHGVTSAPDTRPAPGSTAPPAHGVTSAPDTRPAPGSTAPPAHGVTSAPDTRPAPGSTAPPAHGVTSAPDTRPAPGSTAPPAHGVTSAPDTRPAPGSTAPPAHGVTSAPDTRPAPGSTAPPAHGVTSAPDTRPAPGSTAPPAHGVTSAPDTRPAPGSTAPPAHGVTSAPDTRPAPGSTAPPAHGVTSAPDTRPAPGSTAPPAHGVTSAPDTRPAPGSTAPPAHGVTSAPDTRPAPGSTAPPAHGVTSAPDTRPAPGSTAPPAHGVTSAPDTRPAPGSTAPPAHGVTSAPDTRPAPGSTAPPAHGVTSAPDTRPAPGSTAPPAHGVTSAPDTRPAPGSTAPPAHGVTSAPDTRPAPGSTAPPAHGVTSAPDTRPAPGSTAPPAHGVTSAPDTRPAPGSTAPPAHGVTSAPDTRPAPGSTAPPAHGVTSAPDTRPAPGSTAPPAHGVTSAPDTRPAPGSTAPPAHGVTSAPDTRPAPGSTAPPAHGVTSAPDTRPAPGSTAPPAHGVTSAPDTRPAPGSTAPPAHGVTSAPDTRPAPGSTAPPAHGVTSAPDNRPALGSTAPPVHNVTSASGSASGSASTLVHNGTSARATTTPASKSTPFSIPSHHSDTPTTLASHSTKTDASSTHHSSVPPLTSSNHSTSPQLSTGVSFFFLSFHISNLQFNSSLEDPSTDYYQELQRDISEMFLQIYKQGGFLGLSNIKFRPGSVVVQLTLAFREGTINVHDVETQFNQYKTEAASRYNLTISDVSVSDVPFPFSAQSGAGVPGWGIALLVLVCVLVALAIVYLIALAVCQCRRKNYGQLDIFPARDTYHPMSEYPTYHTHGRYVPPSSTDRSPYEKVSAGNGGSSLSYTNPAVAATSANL

[2] = target: T1, Human MUC1 (full length), on cells; experiment: flow cytometry on live ZR-75 cells (native MUC1)

Row | Binder | Cell lysis activity Emax, T-47D/nanoluc in human whole blood [1] | EC50 [2] | Cell lysis activity EC50, T-47D/nanoluc in human whole blood [1]
1 | B1 | 2.31% |  | 
2 | B2 |  | 20.9 nM | 
3 | B3 | 3.59% |  | 
4 | B4 | 10.6% |  | 8.85 nM
5 | B5 | 10.2% |  | 2.46 nM
